Data: US9732101B2, “Bioreversible boronates for delivery of molecules into cells” (WISCONSIN ALUMNI RESEARCH FOUNDATION, priority 2012, dated 2017)
Like-named read-outs stand apart in the source and are kept apart here.

Experiments:
[1] = Fluorescence polarization assay of binding to GD3 ganglioside-labeled liposomes; set-up: species or system bovine; settings: for affinity for GD3 ganglioside relative to binding of a single benzoboroxole to Neu5Ac: compared with Ka of Table 1
Description: Liposomes were formed by transferring DOPC (dissolved in chloroform solution) and GD3 gangliosides (dissolved in 63:35:5 chloroform/methanol/water) to glass tubes and drying them under Ar (g) and then under vacuum. Lipids were re-suspended in 25 mM HEPES buffer, pH 7.0, containing NaCl (75 mM). The solution of lipids was mixed by vortexing for 2 min, and incubated at 37° C. for 1 h. For DOPC liposomes, DOPC was resuspended at a concentration of 5 mM. For GD3 ganglioside-labeled liposomes, DOPC and GD3 gangliosides were mixed at 3 mM and 2 mM concentrations, respectively. Large unilammelar vesicles were formed by extrusion through a 0.1-μm polycarbonate filter from Whatman (GE Healthcare, Piscataway, N.J.). This process produces a population of vesicles of near uniform size (˜100-150 nm diameter as measured by dynamic light scattering). A portion of the DOPC lipids before extrusion were aliquoted as a control.
Fluorescence polarization assays were performed using 50 nM BODIPY FL-labeled unmodified and benzoboroxole-boronated RNase A in black NBS 96-well plates (Corning Costar, Lowell, Mass.). These ribonucleases were incubated with DOPC liposomes (625 μM total lipid) or GD3 ganglioside-labeled liposomes (375 μM DOPC, 250 μM GD3 ganglioside=625 μM total lipid) in 25 mM HEPES buffer, pH 7.0, containing NaCl (75 mM) in the absence or presence of fructose (10 mM). In control wells, ribonucleases were incubated with non-extruded DOPC lipids. Fluorescence polarization at 470/535 nm with a G-factor of 1.257 was recorded after shaking the plate briefly and incubating at ambient temperature for 1 h. Control well polarization was subtracted from experimental well polarization for each ribonuclease. The assay was performed in triplicate.
The affinity of benzoboroxole-boronated RNase A for GD3 ganglioside-labeled liposomes was assessed by using serially diluted liposomes. GD3 ganglioside-labeled liposomes were serially diluted in 25 mM HEPES, pH 7.0, containing 75 mM with dilutions of 62.5 nM-1250 μM total lipid. […] Control DOPC liposomes (with no GD3 ganglioside) were likewise diluted in the same buffer, producing solutions of 62.5 nM-1250 μM total lipid. Liposomes were then incubated with 50 nM BODIPY FL-labeled benzoboroxole-boronated RNase A in the same buffer in a black NBS 96-well plate. Fluorescence polarization was recorded after shaking the plate briefly and incubating at ambient temperature for 35 min. Fluorescence polarization from GD3 ganglioside-labeled liposomes was subtracted from that from DOPC-only liposomes, thereby correcting for binding to DOPC and for changes in solution viscosity. The assay was performed in duplicate. The fraction of labeled ribonuclease bound for each sample well was calculated by dividing its polarization from the polarization of ribonucleases incubated with the highest concentration of GD3 ganglioside (set at 100% bound). The value of Kd was calculated by plotting the fraction bound against the concentration of GD3 ganglioside (see FIG. 21) and fitting the data to a binding isotherm as described in ref. [46] to give Kd=(54±11) μM.

Pro-5 cells = assay: Confocal microscopy of live cells; type: cell-based, Chinese hamster; settings: 5 μM, 4 h
Description: Cell lines were obtained from American Type Culture Collection (Manassas, Va.) and were maintained according to the recommended procedures. Cells were grown in a cell culture incubator at 37° C. under CO2 (5% v/v) in flat-bottomed culture flasks. Cell medium was supplemented with GIBCO fetal bovine serum (FBS) (10% v/v), penicillin (100 units/mL), and streptomycin (100 μg/mL) in the appropriate cellular medium as follows: Pro-5, MEM α+ribonucleosides+deoxyribonucleosides; Lec-2, MEM α-ribonucleosides-deoxyribonucleosides; and K562, RPMI 1640. Cells were counted by hemocytometry for dispensing into 12-well plates (Corning Costar, Lowell, Mass.) or 8-well chambered coverglass slides (Nuc Lab-Tek II, Thermo Scientific).
Pro-5 cells were plated on Nunc Lab-tek II 8-well chambered coverglass 24 h before use and grown to 80% confluency. Cells were incubated with 5 μM BODIPY FL-labeled ribonucleases for 4 h. Cell nuclei were stained with Hoechst 33342 (Invitrogen, 2 μg/mL) for the final 15 min of incubation. Cells were then washed twice with PBS, suspended in PBS, and examined using a Nikon Eclipse C1 laser scanning confocal microscope. Results are illustrated in FIG. 4B.

K-562 cells = assay: Cell-proliferation assay, [methyl-3H]thymidine incorporation; type: cell-based, human
Description: The effect of unmodified and boronated RNase A on the proliferation of K-562 cells was assayed as described in For assays, 5 μL of a solution of the ribonuclease or PBS (control) was added to 95 μL of cells (5.0×10^4 cells/mL). For co-treatment assays with fructose, ribonucleases were first serially diluted at 2× concentration, followed by addition of an equal volume of 2 M fructose in PBS to each ribonuclease dilution, resulting in a 1× ribonuclease dilution as before but now containing 1 M fructose. Then, 5 μL of each dilution was added to cells as above, including a control of PBS containing 1 M fructose. Because 5 μL of samples were added to 95 μL of cells, the final concentration of fructose in each well was 50 mM.
After a 44-h incubation, K-562 cells were treated with [methyl-^3H]thymidine for 4 h, and the incorporation of radioactive thymidine into cellular DNA was quantitated by liquid scintillation counting. The results are shown as the percentage of [methyl-^3H]thymidine incorporated relative to control cells treated with PBS in FIG. 5. […] Values for IC50 were calculated by fitting the curves by nonlinear regression to the equation: y=100%/(1+10^(log(IC^50^)-log [ribonuclease])h), in which y is the total DNA synthesis following the [methyl-^3H]thymidine pulse and h is the slope of the curve.

B1: benzoboroxole-boronated RNase A: RNase A with 5-amino-2-hydroxymethylphenylboronic acid conjugated to protein carboxyl groups by carbodiimide condensation (conjugate, UniProt P61823 27-150, looked up)
Ribonuclease pancreatic: KETAAAKFERQHMDSSTSAASSSNYCNQMMKSRNLTKDRCKPVNTFVHESLADVQAVCSQKNVACKNGQTNCYQSYSTMSITDCRETGSSKYPNCAYKTTQANKHIIVACEGNPYVPVHFDASV
modifications: benzoboroxole conjugated to carboxyl groups
notes: RNase A with 5-amino-2-hydroxymethylphenylboronic acid conjugated to protein carboxyl groups by carbodiimide condensation
For B1, the Kd ([1]; BODIPY FL-labeled protein 50 nM, 25 mM HEPES buffer, pH 7.0, NaCl 75 mM) was 54 ± 11 µM, the “affinity for GD3 ganglioside relative to binding of a single benzoboroxole to Neu5Ac” value ([1]; listed as benzoboroxole-boronated protein) was ~430 fold and the “affinity for GD3 ganglioside relative to binding of a single benzoboroxole to Neu5Ac” value ([1]; listed as boronated protein) was ~440 fold. For the same molecule, the “effect of boronation on affinity for the ganglioside” value ([1]; fluorescence polarization, absence of fructose, versus unmodified RNase A) was “increased the affinity”, the “effect of fructose on the increased affinity for the ganglioside” value ([1]; fluorescence polarization, fructose 10 mM) was “abrogated” and the intracellular staining pattern (Pro-5 cells) was “punctate staining”. The IC50 (K-562 cells; [methyl-3H]thymidine incorporation, 44-h incubation, read-out: IC50, inhibition of K-562 cell proliferation) was 4 ± 0.3 µM and the IC50 (K-562 cells; fructose 50 mM, read-out: IC50, inhibition of K-562 cell proliferation in the presence of fructose) was 9 ± 1 µM.
